From patent US20240075142A1 (LENTIGEN TECHNOLOGY, published 2024) come the findings set out here.

In this assay the target is T1, CD19 Fc recombinant protein (UniProt P15391 20-291).
T1 construct: Bought staining reagent (R&D System), detected with anti-Fc-AF647; also called CD19-Fc peptide; not shown: Fc part of the bought reagent
T1 sequence (looked up): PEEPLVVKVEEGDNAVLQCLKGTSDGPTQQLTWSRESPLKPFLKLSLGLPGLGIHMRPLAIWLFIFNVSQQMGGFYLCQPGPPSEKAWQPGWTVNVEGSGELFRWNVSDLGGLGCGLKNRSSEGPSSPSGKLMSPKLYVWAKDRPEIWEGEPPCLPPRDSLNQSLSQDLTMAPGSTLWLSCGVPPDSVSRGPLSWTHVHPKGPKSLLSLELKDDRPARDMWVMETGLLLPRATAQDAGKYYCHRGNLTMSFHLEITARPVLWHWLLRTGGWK
The assay can be described thus: flow cytometry of CAR-transduced primary T cells stained with CD19 Fc, then anti-Fc AF647. On the procedure:
The surface expression of anti-CD20/CD19 CARs incorporating single chain fragment variable (ScFv) sequences reactive with fully human CD20 and CD19 antigens, is shown in Example 1 infra, FIG. 1B. The expression level for each ScFv-containing CAR was determined by flow cytometric analysis of LV-transduced T cells from healthy donors using CD19 Fc recombinant protein, followed by anti Fc AF647 (APC).
Half million CAR T cells were washed in cold AutoMACS buffer supplemented with 0.5% bovine serum albumin (Miltenyi Biotec, Bergisch Gladbach, Germany) and stained with CD19-Fc peptide (R&D System, Minneapolis, MN), followed by anti Fc-AF647 conjugate (Jackson ImmunoResearch, West Grove, PA). The 7-Aminoactinomycin D staining (7-AAD, BD Biosciences, San Jose, CA) was added to exclude dead cells. CD4 antibody labeled with Vioblue fluorochrome was used to separate CD4 and CD8 population. Non-transduced cells (UTD) were used as a negative control. Cells were washed twice, resuspended in 200 μl running buffer, and acquired by flow cytometry. Flow cytometric analysis was performed on a MACSQuant® 10 Analyzer (Miltenyi Biotec), and data plots were generated using FlowJo software (Ashland, OR).
(Flow cytometry measures light scatter and fluorescence of single cells or particles in a stream.)

B1: CAR D0256 (CD20_CD19 CD8 CD28 BBz) (other)
chain: EIVLTQSPATLSLSPGERATLSCRASQSVSSYLAWYQQKPGQAPRLLIYDASNRATGIPARFSGSGSGTDFTLTISSLEPEDFAVYYCQQRSNWPITFGQGTRLEIKGGGGSGGGGSGGGGSEVQLVESGGGLVQPGRSLRLSCAASGFTFNDYAMHWVRQAPGKGLEWVSTISWNSGSIGYADSVKGRFTISRDNAKKSLYLQMNSLRAEDTALYYCAKDIQYGNYYYGMDVWGQGTTVTVSSGGGGSGGGGSGGGGSGGGGSGGGGSEVQLVQSGAEVKKPGASVKVSCKASGYTFTSYYMHWVRQAPGQGLEWMGLINPSGGSTSYAQKFQGRVTMTRDTSTSTVYMELSSLRSEDTAVYYCARSDRGITATDAFDIWGQGTMVTVSSGGGGSGGGGSGGGGSQSVLTQPPSVSVAPGRMAKITCGGSDIGNKNVHWYQQKPGQAPVLVVYDDYDRPSGIPERFSGSNSGDAATLTISTVEVGDEADYFCQVWDGSGDPYWMFGGGTQLTVLGAAATTTPAPRPPTPAPTIASQPLSLRPEACRPAAGGAVHTRGLDFACDIYIWAPLAGTCGVLLLSLVITLYCRSKRSRLLHSDYMNMTPRRPGPTRKHYQPYAPPRDFAAYRSKRGRKKLLYIFKQPFMRPVQTTQEEDGCSCRFPEEEEGGCELRVKFSRSADAPAYQQGQNQLYNELNLGRREEYDVLDKRRGRDPEMGGKPRRKNPQEGLYNELQKDKMAEAYSEIGMKGERRRGKGHDGLYQGLSTATKDTYDALHMQALPPR
notes: Tandem CAR on transduced human primary T cells: CD20 scFv, G4S linker, CD19 scFv, CD8 hinge/TM, CD28_4-1BB, CD3zeta; no residue limits are stated
Turning to B1, the binding result is reported as “binds”.

B2: CAR D0255 (CD20_CD19 CD28 CD28 BBz) (other)
chain: EIVLTQSPATLSLSPGERATLSCRASQSVSSYLAWYQQKPGQAPRLLIYDASNRATGIPARFSGSGSGTDFTLTISSLEPEDFAVYYCQQRSNWPITFGQGTRLEIKGGGGSGGGGSGGGGSEVQLVESGGGLVQPGRSLRLSCAASGFTFNDYAMHWVRQAPGKGLEWVSTISWNSGSIGYADSVKGRFTISRDNAKKSLYLQMNSLRAEDTALYYCAKDIQYGNYYYGMDVWGQGTTVTVSSGGGGSGGGGSGGGGSGGGGSGGGGSEVQLVQSGAEVKKPGASVKVSCKASGYTFTSYYMHWVRQAPGQGLEWMGLINPSGGSTSYAQKFQGRVTMTRDTSTSTVYMELSSLRSEDTAVYYCARSDRGITATDAFDIWGQGTMVTVSSGGGGSGGGGSGGGGSQSVLTQPPSVSVAPGRMAKITCGGSDIGNKNVHWYQQKPGQAPVLVVYDDYDRPSGIPERFSGSNSGDAATLTISTVEVGDEADYFCQVWDGSGDPYWMFGGGTQLTVLGAAAIEVMYPPPYLDNEKSNGTIIHVKGKHLCPSPLFPGPSKPFWVLVVVGGVLACYSLLVTVAFIIFWVRSKRSRLLHSDYMNMTPRRPGPTRKHYQPYAPPRDFAAYRSKRGRKKLLYIFKQPFMRPVQTTQEEDGCSCRFPEEEEGGCELRVKFSRSADAPAYQQGQNQLYNELNLGRREEYDVLDKRRGRDPEMGGKPRRKNPQEGLYNELQKDKMAEAYSEIGMKGERRRGKGHDGLYQGLSTATKDTYDALHMQALPPR
notes: Tandem CAR on transduced human primary T cells: CD20 scFv, G4S linker, CD19 scFv, CD28 hinge/TM, CD28_4-1BB, CD3zeta; no residue limits are stated; also called CAR DO255
Consider B2, for which the binding result was “binds”.
